B1: mouse NLGN3 ECD (residues 35–684) with C-terminal His6 tag (domain or fragment, UniProt Q8BYM5 35-684, looked up)
chain: QAPAPTVNTHFGKLRGARVPLPSEILGPVDQYLGVPYAAPPIGEKRFLPPEPPPSWSGIRNATHFPPVCPQNIHTAVPEVMLPVWFTANLDIVATYIQEPNEDCLYLNVYVPTEDGSGAKKQGEDLADNDGDEDEDIRDSGAKPVMVYIHGGSYMEGTGNMIDGSVLASYGNVIVITLNYRVGVLGFLSTGDQAAKGNYGLLDQIQALRWVSENIAFFGGDPRRITVFGSGIGASCVSLLTLSHHSEGLFQRAIIQSGSALSSWAVNYQPVKYTSLLADKVGCNVLDTVDMVDCLRQKSAKELVEQDIQPARYHVAFGPVIDGDVIPDDPEILMEQGEFLNYDIMLGVNQGEGLKFVEGVVDPEDGVSGTDFDYSVSNFVDNLYGYPEGKDTLRETIKFMYTDWADRDNPETRRKTLVALFTDHQWVEPSVVTADLHARYGSPTYFYAFYHHCQSLMKPAWSDAAHGDEVPYVFGVPMVGPTDLFPCNFSKNDVMLSAVVMTYWTNFAKTGDPNKPVPQDTKFIHTKANRFEEVAWSKYNPRDQLYLHIGLKPRVRDHYRATKVAFWKHLVPHLYNLHDMFHYTSTTTKVPPPDTTHSSHITRRPNGKTWSTKRPAISPAYSNENAPGSWNGDQDAGPLLVENPRDYSTE
notes: mouse neuroligin 3, NLGN3A isoform, extracellular domain; Dimer by SEC-MALS and in both crystals; also called apo-NLGN3 ECD; wild-type NLGN3; not shown: His6, C-terminal, kept
B2: NRXN1β (lacking SS4) used for ITC (domain or fragment)
chain: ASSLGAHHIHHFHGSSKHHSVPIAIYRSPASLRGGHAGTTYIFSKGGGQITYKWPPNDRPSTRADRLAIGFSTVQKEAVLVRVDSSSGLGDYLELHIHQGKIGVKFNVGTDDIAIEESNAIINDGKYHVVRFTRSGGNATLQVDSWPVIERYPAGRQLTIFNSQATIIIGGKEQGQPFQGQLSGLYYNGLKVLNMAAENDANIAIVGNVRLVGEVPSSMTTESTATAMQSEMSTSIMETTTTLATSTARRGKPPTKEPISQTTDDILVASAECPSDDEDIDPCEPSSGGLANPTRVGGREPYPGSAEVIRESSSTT

Series [1] deals with the molecule itself. The series can be described thus: SEC-MALS; NLGN3 ECD wild-type at 1.5 g/L or R/C mutant at 1.1 g/L on ENrich SEC 650, 20 mM Tris-HCl pH 7.5, 150 mM NaCl. Background: Size exclusion chromatography separates by hydrodynamic size, large species first.
Series [2] addresses T1, NLGN3 ECD MF/IS mutant (M614I F615S) with His6 tag (mouse, UniProt Q8BYM5 35-684, M614I | F615S).
T1 construct: mouse neuroligin 3, NLGN3A isoform, extracellular domain (gene for residues 1–684 expressed and secreted), mutated; also called NLGN3-MF/IS; not shown: His6, C-terminal, kept
Description: ITC; NLGN3 ECD (20 µM) in the cell, NRXN1β (200 µM) injected; 20 mM Tris-HCl pH 8.0, 150 mM NaCl, 1 mM CaCl2, 25 °C; one-site model. As to conditions: both partners purified. (In general: In ITC the heat of successive injections is recorded.)

Series [3] concerns the target B1. Described as above. As to conditions: both partners purified.

Consider B1, for which, in series [1], the stoichiometry N (commonly the number of molecules, sites or subunits per partner or assembly) was found to be 2.
With B2, the Kd (usually a measure of binding affinity in units of concentration) is 2300 nM in series [2] and 1800 nM in series [3].

For the origin of these results see paper PMC7988105, “Canonical versus non-canonical transsynaptic signaling of neuroligin 3 tunes development of sociality in mice” (Nature Communications, 2021).
